Patent publication US20060263802A1

B1: human monoclonal antibody CRJA (antibody, V domains shown)
VH: EVQLLESGGGLVQPGGSLRLSCAASGFTFSNYAMSWVRQAPGKGLEWVSAISASGHSTYLADSVKGRFTISRDNSKNTLYLQMNSLRAEDTAVYYCAKDREVTMIVVLNGGFDYWGQGTRVTVSS
VL: EIVLTQSPATLSLSPGERATLACRASQTASRYLAWYQQKPGQAPRLLIYDTSNRATGIPARFSGSGSGTDFTLSISSLEPEDFAVYYCQQRFNWPWTFGQGTKVEFK
B2: human monoclonal antibody CR57 (antibody, V domains shown)
VH: QVQLVQSGAEVKKPGSSVKVSCKASGGTFNRYTVNWVRQAPGQGLEWMGGIIPIFGTANYAQRFQGRLTITADESTSTAYMELSSLRSDDTAVYFCARENLDNSGTYYYFSGWFDPWGQGTLVTVSS
VL: QSALTQPRSVSGSPGQSVTISCTGTSSDIGGYNFVSWYQQHPGKAPKLMIYDATKRPSGVPDRFSGSKSGNTASLTISGLQAEDEADYYCCSYAGDYTPGVVFGGGTKLTVL

Columns and labels:
[1] = target: linear peptide … (rabies virus strain ERA); assay: PEPSCAN ELISA, linear peptide, 10 µg/ml
[2] = target: linear peptide … (rabies virus strain ERA); assay: PEPSCAN ELISA, linear peptide, antibody 10 µg/ml

Row | Binder | OD [1] | OD value [2]
1 | B1 | 96 OD | 1030
2 | B2 |  | 364
